Data on 9 sequences can be found in the supplement of paper PMC5998384.

For data set [1], the system named is HeLa Kyoto. Kind of data set: melting temperature (median over replicates), in situ; higher = more thermally stable.
In data set [2] the test system is HeLa Kyoto. Kind of data set: thermal stability score vs G1/S (z-score of summed log2 fold changes over temperatures); higher = more thermally stable than in G1/S.
Data set [3] concerns HeLa Kyoto. Kind of data set: solubility change mitosis vs G1/S (difference of NP-40 vs SDS log2 ratios) (log2 ratio difference); higher = more soluble in mitosis.
Data set [4] deals with HeLa Kyoto. Kind of data set: solubility in G1/S (NP-40 vs SDS abundance) (log2 ratio); higher = more soluble. The following applies: cell cycle stage: G1/S.
[5] abbreviates: cell cycle stage: early G1 (4.5 h after nocodazole release).
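Wherever melting temperature (median over replicates), in situ is given: HeLa Kyoto cells synchronized by double thymidine or nocodazole block, proteins quantified by TMT10plex mass spectrometry, three independent biological replicates.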
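Wherever solubility change mitosis vs G1/S (difference of NP-40 vs SDS log2 ratios) is given: synchronized HeLa Kyoto cells (double thymidine block for G1/S, nocodazole release for mitosis), protein amounts in NP-40 versus SDS lysates quantified by mass spectrometry, three biological replicates.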
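Wherever solubility in G1/S (NP-40 vs SDS abundance) is given: HeLa Kyoto cells arrested at G1/S by double thymidine block, proteins quantified by TMT10plex mass spectrometry in mild NP-40 versus SDS extracts, three biological replicates.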
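Wherever thermal stability score vs G1/S (z-score of summed log2 fold changes over temperatures) is given: synchronized HeLa Kyoto cells, proteins quantified by TMT10plex mass spectrometry, three biological replicates, mitosis taken 0.5 h after nocodazole release, G1/S directly after double thymidine block.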

In the case of “MSRQNLVALTVTTLLGVAVGGFVLWKGIQRRRRSKTSPVTQQPQQKVLGSRELPPPEDDQLHSSAPRSSWKERILKAKVVTVSQEAEWDQIEPLLRSELEDFPVLGIDCEWVNLEGKASPLSLLQMASPSGLCVLVRLPKLICGGKTLPRTLLDILADGTILKVGVGCSEDASKLLQDYGLVVRGCLDLRYLAMRQRNNLLCNGLSLKSLAETVLNFPLDKSLLLRCSNWDAETLTEDQVIYAARDAQISVALFLHLLGYPFSRNSPGEKNDDHSSWRKVLEKCQGVVDIPFRSKGMSRLGEEVNGEATESQQKPRNKKSKMDGMVPGNHQGRDPRKHKRKPLGVGYSARKSPLYDNCFLHAPDGQPLCTCDRRKAQWYLDKGIGELVSEEPFVVKLRFEPAGRPESPGDYYLMVKENLCVVCGKRDSYIRKNVIPHEYRKHFPIEMKDHNSHDVLLLCTSCHAISNYYDNHLKQQLAKEFQAPIGSEEGLRLLEDPERRQVRSGARALLNAESLPTQRKEELLQALREFYNTDVVTEEMLQEAASLETRISNENYVPHGLKVVQCHSQGGLRSLMQLESRWRQHFLDSMQPKHLPQQWSVDHNHQKLLRKFGEDLPIQLS [EXD2]”, the melting temperature stood at 49.7 °C in the data set with HeLa Kyoto [1] (cell cycle stage: G1/S) and 49.6 °C with HeLa Kyoto [1] (cell cycle stage: mitosis). The thermal stability score in the data set on HeLa Kyoto [2] (setting [5]) worked out at 0.38; with HeLa Kyoto [2] (cell cycle stage: mitosis) it was 0.455. Further, in the data set with HeLa Kyoto [3], the “solubility change mitosis (log2)” value was -0.0547. In addition, in the data set with HeLa Kyoto [4], the “solubility in G1/S (log2)” value worked out at 0.113.

As to “MSRRLLPRAEKRRRRLEQRQQPDEQRRRSGAMVKMAAAGGGGGGGRYYGGGSEGGRAPKRLKTDNAGDQHGGGGGGGGGAGAAGGGGGGENYDDPHKTPASPVVHIRGLIDGVVEADLVEALQEFGPISYVVVMPKKRQALVEFEDVLGACNAVNYAADNQIYIAGHPAFVNYSTSQKISRPGDSDDSRSVNSVLLFTILNPIYSITTDVLYTICNPCGPVQRIVIFRKNGVQAMVEFDSVQSAQRAKASLNGADIYSGCCTLKIEYAKPTRLNVFKNDQDTWDYTNPNLSGQGDPGSNPNKRQRQPPLLGDHPAEYGGPHGGYHSHYHDEGYGPPPPHYEGRRMGPPVGGHRRGPSRYGPQYGHPPPPPPPPEYGPHADSPVLMVYGLDQSKMNCDRVFNVFCLYGNVEKVKFMKSKPGAAMVEMADGYAVDRAITHLNNNFMFGQKLNVCVSKQPAIMPGQSYGLEDGSCSYKDFSESRNNRFSTPEQAAKNRIQHPSNVLHFFNAPLEVTEENFFEICDELGVKRPSSVKVFSGKSERSSSGLLEWESKSDALETLGFLNHYQMKNPNGPYPYTLKLCFSTAQHAS [HNRNPL]”, the figures for the melting temperature in the data set with HeLa Kyoto [1] (cell cycle stage: G1/S) and with HeLa Kyoto [1] (cell cycle stage: mitosis) were 46.4 °C and 48.1 °C, respectively. For the same sequence, the thermal stability score with HeLa Kyoto [2] (setting [5]) amounted to 5.28; in the data set on HeLa Kyoto [2] (cell cycle stage: mitosis) it was 10.5. In the data set on HeLa Kyoto [3], the “solubility change mitosis (log2)” value came to 0.228. For the same sequence, the “solubility in G1/S (log2)” value in the data set on HeLa Kyoto [4] was -0.26.

For “MSRRYDSRTTIFSPEGRLYQVEYAMEAIGHAGTCLGILANDGVLLAAERRNIHKLLDEVFFSEKIYKLNEDMACSVAGITSDANVLTNELRLIAQRYLLQYQEPIPCEQLVTALCDIKQAYTQFGGKRPFGVSLLYIGWDKHYGFQLYQSDPSGNYGGWKATCIGNNSAAAVSMLKQDYKEGEMTLKSALALAIKVLNKTMDVSKLSAEKVEIATLTRENGKTVIRVLKQKEVEQLIKKHEEEEAKAEREKKEKEQKEKDK [PSMA4]”, the melting temperature with HeLa Kyoto [1] (cell cycle stage: G1/S) was found to be 59.5 °C; in the data set on HeLa Kyoto [1] (cell cycle stage: mitosis), 60.5 °C. For the same sequence, the figures for the thermal stability score in the data set on HeLa Kyoto [2] (setting [5]) and in the data set on HeLa Kyoto [2] (cell cycle stage: mitosis) were -0.647 and -0.541, respectively. The “solubility change mitosis (log2)” value in the data set with HeLa Kyoto [3] is -0.0614. Moreover, the “solubility in G1/S (log2)” value in the data set on HeLa Kyoto [4] was 0.45.

As for “MSRSYNDELQFLEKINKNCWRIKKGFVPNMQVEGVFYVNDALEKLMFEELRNACRGGGVGGFLPAMKQIGNVAALPGIVHRSIGLPDVHSGYGFAIGNMAAFDMNDPEAVVSPGGVGFDINCGVRLLRTNLDESDVQPVKEQLAQAMFDHIPVGVGSKGVIPMNAKDLEEALEMGVDWSLREGYAWAEDKEHCEEYGRMLQADPNKVSARAKKRGLPQLGTLGAGNHYAEIQVVDEIFNEYAAKKMGIDHKGQVCVMIHSGSRGLGHQVATDALVAMEKAMKRDKIIVNDRQLACARIASPEGQDYLKGMAAAGNYAWVNRSSMTFLTRQAFAKVFNTTPDDLDLHVIYDVSHNIAKVEQHVVDGKERTLLVHRKGSTRAFPPHHPLIAVDYQLTGQPVLIGGTMGTCSYVLTGTEQGMTETFGTTCHGAGRALSRAKSRRNLDFQDVLDKLADMGIAIRVASPKLVMEEAPESYKNVTDVVNTCHDAGISKKAIKLRPIAVIKG [RTCB]”, the melting temperature in the data set with HeLa Kyoto [1] (cell cycle stage: G1/S) came out at 53 °C; in the data set with HeLa Kyoto [1] (cell cycle stage: mitosis) it was 52.4 °C. Besides, the thermal stability score in the data set on HeLa Kyoto [2] (setting [5]) was -2.97; with HeLa Kyoto [2] (cell cycle stage: mitosis), -3.42. Further, the “solubility change mitosis (log2)” value in the data set with HeLa Kyoto [3] was determined as 0.0881. For the same sequence, in the data set on HeLa Kyoto [4], the “solubility in G1/S (log2)” value turned out to be 0.171.

Take “MSRYLLPLSALGTVAGAAVLLKDYVTGGACPSKATIPGKTVIVTGANTGIGKQTALELARRGGNIILACRDMEKCEAAAKDIRGETLNHHVNARHLDLASLKSIREFAAKIIEEEERVDILINNAGVMRCPHWTTEDGFEMQFGVNHLGHFLLTNLLLDKLKASAPSRIINLSSLAHVAGHIDFDDLNWQTRKYNTKAAYCQSKLAIVLFTKELSRRLQGSGVTVNALHPGVARTELGRHTGIHGSTFSSTTLGPIFWLLVKSPELAAQPSTYLAVAEELADVSGKYFDGLKQKAPAPEAEDEEVARRLWAESARLVGLEAPSVREQPLPR [RDH13]”: the melting temperature was determined as 51.1 °C in the data set on HeLa Kyoto [1] (cell cycle stage: G1/S) and 51.6 °C with HeLa Kyoto [1] (cell cycle stage: mitosis). In addition, the thermal stability score is -0.911 with HeLa Kyoto [2] (setting [5]) and -0.156 in the data set with HeLa Kyoto [2] (cell cycle stage: mitosis). In the data set with HeLa Kyoto [3], the “solubility change mitosis (log2)” value came out at 0.0735. The “solubility in G1/S (log2)” value in the data set on HeLa Kyoto [4] turned out to be 0.415.

On to “MSSDASQGVITTPPPPSMPHKERYFDRINENDPEYIRERNMSPDLRQDFNMMEQRKRVTQILQSPAFREDLECLIQEQMKKGHNPTGLLALQQIADYIMANSFSGFSSPPLSLGMVTPINDLPGADTSSYVKGEKLTRCKLASLYRLVDLFGWAHLANTYISVRISKEQDHIIIIPRGLSFSEATASNLVKVNIIGEVVDQGSTNLKIDHTGFSPHAAIYSTRPDVKCVIHIHTLATAAVSSMKCGILPISQESLLLGDVAYYDYQGSLEEQEERIQLQKVLGPSCKVLVLRNHGVVALGETLEEAFHYIFNVQLACEIQVQALAGAGGVDNLHVLDFQKYKAFTYTVAASGGGGVNMGSHQKWKVGEIEFEGLMRTLDNLGYRTGYAYRHPLIREKPRHKSDVEIPATVTAFSFEDDTVPLSPLKYMAQRQQREKTRWLNSPNTYMKVNVPEESRNGETSPRTKITWMKAEDSSKVSGGTPIKIEDPNQFVPLNTNPNEVLEKRNKIREQNRYDLKTAGPQSQLLAGIVVDKPPSTMQFEDDDHGPPAPPNPFSHLTEGELEEYKRTIERKQQGLEDAEQELLSDDASSVSQIQSQTQSPQNVPEKLEENHELFSKSFISMEVPVMVVNGKDDMHDVEDELAKRVSRLSTSTTIENIEITIKSPEKIEEVLSPEGSPSKSPSKKKKKFRTPSFLKKNKKKEKVEA [ADD3]”, for which the melting temperature in the data set on HeLa Kyoto [1] (cell cycle stage: G1/S) is 55.9 °C; in the data set on HeLa Kyoto [1] (cell cycle stage: mitosis) it was 55.5 °C. In addition, the thermal stability score is -4.93 in the data set on HeLa Kyoto [2] (setting [5]) and -3.64 in the data set on HeLa Kyoto [2] (cell cycle stage: mitosis). In the data set with HeLa Kyoto [3], the “solubility change mitosis (log2)” value stood at 0.481. In the data set on HeLa Kyoto [4], the “solubility in G1/S (log2)” value was -0.181.

As to “MSSEDREAQEDELLALASIYDGDEFRKAESVQGGETRIYLDLPQNFKIFVSGNSNECLQNSGFEYTICFLPPLVLNFELPPDYPSSSPPSFTLSGKWLSPTQLSALCKHLDNLWEEHRGSVVLFAWMQFLKEETLAYLNIVSPFELKIGSQKKVQRRTAQASPNTELDFGGAAGSDVDQEEIVDERAVQDVESLSNLIQEILDFDQAQQIKCFNSKLFLCSICFCEKLGSECMYFLECRHVYCKACLKDYFEIQIRDGQVQCLNCPEPKCPSVATPGQVKELVEAELFARYDRLLLQSSLDLMADVVYCPRPCCQLPVMQEPGCTMGICSSCNFAFCTLCRLTYHGVSPCKVTAEKLMDLRNEYLQADEANKRLLDQRYGKRVIQKALEEMESKEWLEKNSKSCPCCGTPIEKLDGCNKMTCTGCMQYFCWICMGSLSRANPYKHFNDPGSPCFNRLFYAVDVDDDIWEDEVED [RNF14]”, the melting temperature stood at 49.6 °C with HeLa Kyoto [1] (cell cycle stage: G1/S) and 49.1 °C in the data set on HeLa Kyoto [1] (cell cycle stage: mitosis). Moreover, the thermal stability score with HeLa Kyoto [2] (setting [5]) amounted to 0.508; in the data set on HeLa Kyoto [2] (cell cycle stage: mitosis), 1.14. Moreover, the “solubility change mitosis (log2)” value in the data set with HeLa Kyoto [3] is -0.286. In the data set with HeLa Kyoto [4], the “solubility in G1/S (log2)” value was determined as 0.119.

In the case of “MSSFSESALEKKLSELSNSQQSVQTLSLWLIHHRKHAGPIVSVWHRELRKAKSNRKLTFLYLANDVIQNSKRKGPEFTREFESVLVDAFSHVAREADEGCKKPLERLLNIWQERSVYGGEFIQQLKLSMEDSKSPPPKATEEKKSLKRTFQQIQEEEDDDYPGSYSPQDPSAGPLLTEELIKALQDLENAASGDATVRQKIASLPQEVQDVSLLEKITDKEAAERLSKTVDEACLLLAEYNGRLAAELEDRRQLARMLVEYTQNQKDVLSEKEKKLEEYKQKLARVTQVRKELKSHIQSLPDLSLLPNVTGGLAPLPSAGDLFSTD [RPRD1B]”, the melting temperature came to 49.5 °C in the data set with HeLa Kyoto [1] (cell cycle stage: G1/S) and 50 °C with HeLa Kyoto [1] (cell cycle stage: mitosis). Further, the figures for the thermal stability score in the data set on HeLa Kyoto [2] (setting [5]) and in the data set on HeLa Kyoto [2] (cell cycle stage: mitosis) were -0.302 and 0.484, respectively. In the data set on HeLa Kyoto [3], the “solubility change mitosis (log2)” value turned out to be 0.00357. Moreover, the “solubility in G1/S (log2)” value in the data set on HeLa Kyoto [4] stood at 0.562.

As to “MSSGAPQKSSPMASGAEETPGFLDTLLQDFPALLNPEDPLPWKAPGTVLSQEEVEGELAELAMGFLGSRKAPPPLAAALAHEAVSQLLQTDLSEFRKLPREEEEEEEDDDEEEKAPVTLLDAQSLAQSFFNRLWEVAGQWQKQVPLAARASQRQWLVSIHAIRNTRRKMEDRHVSLPSFNQLFGLSDPVNRAYFAVFDGHGGVDAARYAAVHVHTNAARQPELPTDPEGALREAFRRTDQMFLRKAKRERLQSGTTGVCALIAGATLHVAWLGDSQVILVQQGQVVKLMEPHRPERQDEKARIEALGGFVSHMDCWRVNGTLAVSRAIGDVFQKPYVSGEADAASRALTGSEDYLLLACDGFFDVVPHQEVVGLVQSHLTRQQGSGLRVAEELVAAARERGSHDNITVMVVFLRDPQELLEGGNQGEGDPQAEGRRQDLPSSLPEPETQAPPRS [PPM1F]”, the figures for the melting temperature in the data set with HeLa Kyoto [1] (cell cycle stage: G1/S) and in the data set with HeLa Kyoto [1] (cell cycle stage: mitosis) were 51.8 °C and 52.7 °C, respectively. Moreover, the thermal stability score in the data set on HeLa Kyoto [2] (setting [5]) is -0.813; in the data set with HeLa Kyoto [2] (cell cycle stage: mitosis), -0.95. Moreover, in the data set on HeLa Kyoto [3], the “solubility change mitosis (log2)” value was -0.0364. For the same sequence, in the data set with HeLa Kyoto [4], the “solubility in G1/S (log2)” value was 0.464.
